Test results: paper PMC9192595, “Dynamic interaction of BRCA2 with telomeric G-quadruplexes underlies telomere replication homeostasis”
Residue numbers refer to the chain shown, from its start.

Key:
BRCA2OB [1] = target: T1, BRCA2OB (human, UniProt P51587 2665-3197); assay: EMSA; 100 mM KCl; EMSA: 10 nM probe, 50 mM Tris-HCl pH 7.5, 100 mM KCl, 2 mM b-ME, 10% glycerol, probe pre-incubated 37 C, gel 4 C (RAD51: +1 mM MgCl2, 2 mM ATP); smFRET: 50 mM Tris-HCl pH 7.9, 100 mM KCl, 20 mM NaCl, 1 mM DTT, 0.1 mg/ml BSA, 9% glycerol, 37 C; conditions: protein: recombinant, tags: N-MBP, C-6xHis, label: 5' 32P
T1 sequence: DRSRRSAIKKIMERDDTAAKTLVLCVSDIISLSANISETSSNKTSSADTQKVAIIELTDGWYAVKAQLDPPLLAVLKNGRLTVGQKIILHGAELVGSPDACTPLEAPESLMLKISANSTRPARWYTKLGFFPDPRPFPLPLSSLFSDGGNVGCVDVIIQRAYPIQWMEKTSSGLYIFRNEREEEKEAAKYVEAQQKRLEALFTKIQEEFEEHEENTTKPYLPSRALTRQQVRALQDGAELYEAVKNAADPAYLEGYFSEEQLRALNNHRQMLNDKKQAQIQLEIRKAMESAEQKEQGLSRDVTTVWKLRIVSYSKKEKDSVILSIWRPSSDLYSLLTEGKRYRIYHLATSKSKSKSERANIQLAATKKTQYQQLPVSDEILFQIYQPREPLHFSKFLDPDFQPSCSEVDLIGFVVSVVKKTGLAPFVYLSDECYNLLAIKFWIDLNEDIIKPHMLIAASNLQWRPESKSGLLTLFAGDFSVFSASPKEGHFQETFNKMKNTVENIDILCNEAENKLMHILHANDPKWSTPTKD

GST-B2-8 = target: T2, GST-B2-8 (human, UniProt P51587 2780-3197); assay: EMSA; 150 mM KCl; EMSA: 10 nM probe, 50 mM Tris-HCl pH 7.5, 100 mM KCl, 2 mM b-ME, 10% glycerol, probe pre-incubated 37 C, gel 4 C (RAD51: +1 mM MgCl2, 2 mM ATP); smFRET: 50 mM Tris-HCl pH 7.9, 100 mM KCl, 20 mM NaCl, 1 mM DTT, 0.1 mg/ml BSA, 9% glycerol, 37 C; conditions: protein: recombinant; tags: GST; label: 32P
T2 sequence: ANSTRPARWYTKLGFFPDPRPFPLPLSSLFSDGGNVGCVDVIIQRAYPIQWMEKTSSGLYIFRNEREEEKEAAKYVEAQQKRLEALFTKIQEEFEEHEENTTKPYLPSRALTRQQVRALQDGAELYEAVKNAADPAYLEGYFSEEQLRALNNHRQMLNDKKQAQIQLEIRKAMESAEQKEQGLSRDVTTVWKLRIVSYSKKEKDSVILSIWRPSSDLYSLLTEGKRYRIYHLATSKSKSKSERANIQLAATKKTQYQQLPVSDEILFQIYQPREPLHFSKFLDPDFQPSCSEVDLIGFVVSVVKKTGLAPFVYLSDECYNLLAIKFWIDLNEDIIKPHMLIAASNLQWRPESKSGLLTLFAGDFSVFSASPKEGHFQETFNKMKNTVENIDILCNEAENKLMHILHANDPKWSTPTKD

GST-B2-7 = target: T3, GST-B2-7 (human, UniProt P51587 2438-2824); assay: as above; conditions: protein: recombinant; tags: GST; label: 32P
T3 sequence: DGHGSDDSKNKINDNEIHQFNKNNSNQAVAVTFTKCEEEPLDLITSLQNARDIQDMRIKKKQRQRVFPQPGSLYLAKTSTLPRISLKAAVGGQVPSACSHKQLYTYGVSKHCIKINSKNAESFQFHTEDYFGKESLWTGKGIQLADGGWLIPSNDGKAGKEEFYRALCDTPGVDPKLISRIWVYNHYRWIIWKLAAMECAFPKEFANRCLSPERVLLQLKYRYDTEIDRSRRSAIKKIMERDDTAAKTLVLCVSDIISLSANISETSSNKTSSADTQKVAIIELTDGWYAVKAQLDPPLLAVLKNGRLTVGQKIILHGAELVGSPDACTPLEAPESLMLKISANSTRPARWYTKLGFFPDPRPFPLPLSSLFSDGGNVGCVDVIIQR

GST-B2-9 = target: T4, GST-B2-9 (human, UniProt P51587 3189-3418); assay: as above; conditions: protein: recombinant; tags: GST; label: 32P
T4 sequence: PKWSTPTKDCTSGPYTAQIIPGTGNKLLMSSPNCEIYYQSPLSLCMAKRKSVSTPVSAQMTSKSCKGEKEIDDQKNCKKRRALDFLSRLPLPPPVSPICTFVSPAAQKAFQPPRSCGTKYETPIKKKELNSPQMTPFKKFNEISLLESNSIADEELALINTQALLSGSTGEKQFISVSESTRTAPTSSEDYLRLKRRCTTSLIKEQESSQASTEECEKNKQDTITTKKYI

BRCA2OB [2] = target: T1, BRCA2OB; assay: EMSA; EMSA: 10 nM probe, 50 mM Tris-HCl pH 7.5, 100 mM KCl, 2 mM b-ME, 10% glycerol, probe pre-incubated 37 C, gel 4 C (RAD51: +1 mM MgCl2, 2 mM ATP); smFRET: 50 mM Tris-HCl pH 7.9, 100 mM KCl, 20 mM NaCl, 1 mM DTT, 0.1 mg/ml BSA, 9% glycerol, 37 C; conditions: protein: recombinant; tags: N-MBP, C-6xHis; label: 5' 32P
BRCA2OB [3] = target: T1, BRCA2OB; assay: smFRET; 0.1 and 1 uM BRCA2OB; EMSA: 10 nM probe, 50 mM Tris-HCl pH 7.5, 100 mM KCl, 2 mM b-ME, 10% glycerol, probe pre-incubated 37 C, gel 4 C (RAD51: +1 mM MgCl2, 2 mM ATP); smFRET: 50 mM Tris-HCl pH 7.9, 100 mM KCl, 20 mM NaCl, 1 mM DTT, 0.1 mg/ml BSA, 9% glycerol, 37 C; conditions: protein: recombinant, tags: N-MBP, C-6xHis, label: 3' Cy3, stem 5' Cy5, 3' biotin
BRCA2OB [4] = target: T1, BRCA2OB; assay: smFRET; 1 uM BRCA2OB; EMSA: 10 nM probe, 50 mM Tris-HCl pH 7.5, 100 mM KCl, 2 mM b-ME, 10% glycerol, probe pre-incubated 37 C, gel 4 C (RAD51: +1 mM MgCl2, 2 mM ATP); smFRET: 50 mM Tris-HCl pH 7.9, 100 mM KCl, 20 mM NaCl, 1 mM DTT, 0.1 mg/ml BSA, 9% glycerol, 37 C; conditions: protein: recombinant; tags: N-MBP, C-6xHis; label: 3' Cy3; stem 5' Cy5, 3' biotin
BRCA2OB [5] = target: T1, BRCA2OB; assay: EMSA; 100 mM KCl; EMSA: 10 nM probe, 50 mM Tris-HCl pH 7.5, 100 mM KCl, 2 mM b-ME, 10% glycerol, probe pre-incubated 37 C, gel 4 C (RAD51: +1 mM MgCl2, 2 mM ATP); smFRET: 50 mM Tris-HCl pH 7.9, 100 mM KCl, 20 mM NaCl, 1 mM DTT, 0.1 mg/ml BSA, 9% glycerol, 37 C; conditions: protein: recombinant; tags: N-MBP, C-6xHis; label: 5' 32P; intramolecular G4
BRCA2OB [6] = target: T1, BRCA2OB; assay: EMSA; 100 mM KCl; rough estimate, max protein 1 uM; EMSA: 10 nM probe, 50 mM Tris-HCl pH 7.5, 100 mM KCl, 2 mM b-ME, 10% glycerol, probe pre-incubated 37 C, gel 4 C (RAD51: +1 mM MgCl2, 2 mM ATP); smFRET: 50 mM Tris-HCl pH 7.9, 100 mM KCl, 20 mM NaCl, 1 mM DTT, 0.1 mg/ml BSA, 9% glycerol, 37 C; conditions: protein: recombinant; tags: N-MBP, C-6xHis; label: 5' 32P; intramolecular G4
POT1OB = target: T5, POT1OB (human, UniProt Q9NUX5 10-278); assay: EMSA; 100 mM KCl; EMSA: 10 nM probe, 50 mM Tris-HCl pH 7.5, 100 mM KCl, 2 mM b-ME, 10% glycerol, probe pre-incubated 37 C, gel 4 C (RAD51: +1 mM MgCl2, 2 mM ATP); smFRET: 50 mM Tris-HCl pH 7.9, 100 mM KCl, 20 mM NaCl, 1 mM DTT, 0.1 mg/ml BSA, 9% glycerol, 37 C; conditions: protein: recombinant; tags: N-MBP, C-6xHis; label: 5' 32P; intramolecular G4
T5 sequence: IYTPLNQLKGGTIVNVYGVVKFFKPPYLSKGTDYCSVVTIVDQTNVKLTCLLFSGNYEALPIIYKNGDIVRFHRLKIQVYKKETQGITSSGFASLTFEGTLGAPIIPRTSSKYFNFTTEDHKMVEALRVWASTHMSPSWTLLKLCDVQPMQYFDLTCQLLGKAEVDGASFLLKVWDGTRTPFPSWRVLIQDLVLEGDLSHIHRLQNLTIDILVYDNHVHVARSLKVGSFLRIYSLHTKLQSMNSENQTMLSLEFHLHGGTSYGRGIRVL

[7] = 29 bp stem with 3' G4 overhang 30 nt

B1: TelG5:TelC5 (dsDNA)
DNA 1: GGTTAGGGTTAGGGTTAGGGTTAGGGTTAG
DNA 2: CTAACCCTAACCCTAACCCTAACCCTAACC
- binding result (BRCA2OB [1]; blunt): no binding

Binder: AGTTAGAGTTAGAGTTAGAGTTAGAGTTAG (ssDNA) [TelG5GAG]
- binding result (BRCA2OB [1]; unfolded): no binding

Binder: GGTTAGGGTTAGGGTTAG (ssDNA) [TelG3]
- binding result (BRCA2OB [1]): no binding

Binder: GGTTAGGGTTAGGGTTAGGGTTAGGGTTAGGGTTAG (structured_DNA) [TelG6]
- binding result (BRCA2OB [1]; intramolecular G4): binds

Binder: GCCCGCGGTTAGGGTTAGGGTTAGGGTTAGGGGTGAATTC (ssDNA) [telomeric G-rich strand (40 nt)]
- binding result (GST-B2-8): binds
- binding result (GST-B2-7): no binding
- binding result (GST-B2-9): no binding

Binder: GAATTCACCCCTAACCCTAACCCTAACCCTAACCGCGGGC (ssDNA) [telomeric C-rich strand (40 nt)]
- binding result (GST-B2-8): no binding
- binding result (GST-B2-7): no binding
- binding result (GST-B2-9): no binding

Binder: GCTAGGGCTAGGGCTAGGGCTAGGGCTAG (structured_DNA) [TelG-CTA]
- binding result (BRCA2OB [2]): no binding

B2: TelG5 smFRET (mixed)
DNA 1: GCGTGGCACCGGTAATAGGAGATAGGAGAGGTTAGGGTTAGGGTTAGGGTTAGGGTTAG
DNA 2: TCTCCTATCTCCTATTACCGGTGCCACGC
modifications: 3' amino; stem 5' amino
- binding result (BRCA2OB [3]; [7]): binds

B3: TelG5CTA smFRET (mixed)
DNA 1: B2 DNA 1 with T32C, T38C, T44C, T50C, T56C
DNA 2: TCTCCTATCTCCTATTACCGGTGCCACGC
modifications: 3' amino; stem 5' amino
- binding result (BRCA2OB [4]): no binding

B4: TelG5TTT smFRET (mixed)
DNA 1: B2 DNA 1 with A34T, A40T, A46T, A52T, A58T
DNA 2: TCTCCTATCTCCTATTACCGGTGCCACGC
modifications: 3' amino; stem 5' amino
- binding result (BRCA2OB [3]; [7]): binds

Binder: CTAACCCTAACCCTAACCCTAACCCTAACC (ssDNA) [TelC5]
- binding result (BRCA2OB [1]): no binding

B5: TelG5TT smFRET (mixed)
DNA 1: GCGTGGCACCGGTAATAGGAGATAGGAGAGGTTTGGGTTGGGTTGGGTTGGGTTTG
DNA 2: TCTCCTATCTCCTATTACCGGTGCCACGC
modifications: 3' amino; stem 5' amino
- binding result (BRCA2OB [3]; 29 bp stem with 3' G4 overhang 27 nt): binds

Binder: GGTTGGGGTTGGGGTTGGGGTTGGGGTTGG (structured_DNA) [TelG5T2G4]
- binding signal (BRCA2OB [5]): ~3 fold vs TelG5
- Kd (BRCA2OB [6]): 1400 nM
- binding result (POT1OB): no binding
